Results published in article PMC6881245.

Experiments:
[1] = molecular target: Complement C1q (UniProt P02745)
[2] = molecular target: Complement C1q (UniProt P02745); assay: flow cytometry on cholesterol crystals; C1q (50 μg/ml in PBS, 1 h RT) bound to cholesterol crystals (1.6 mg/ml), washed; vWF 10 μg/ml in PBS added for 1 h at RT, washed; vWF detected with polyclonal rabbit anti-vWF and anti-rabbit IgG-AF647; BD Accuri 6; n = 5
[3] = molecular target: Complement C1q (UniProt P02745); remark: listed apart in the source

Sequence of UniProt P02745 (P02745 23-245, chain 1 of 3): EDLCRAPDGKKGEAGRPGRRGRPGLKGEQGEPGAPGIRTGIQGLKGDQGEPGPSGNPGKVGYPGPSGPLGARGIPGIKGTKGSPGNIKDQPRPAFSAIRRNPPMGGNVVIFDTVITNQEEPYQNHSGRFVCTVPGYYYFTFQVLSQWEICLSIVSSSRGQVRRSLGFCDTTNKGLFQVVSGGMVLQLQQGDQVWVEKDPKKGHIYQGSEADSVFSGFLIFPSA
Sequence of UniProt P02745 (P02746 28-253, chain 2 of 3, further chain): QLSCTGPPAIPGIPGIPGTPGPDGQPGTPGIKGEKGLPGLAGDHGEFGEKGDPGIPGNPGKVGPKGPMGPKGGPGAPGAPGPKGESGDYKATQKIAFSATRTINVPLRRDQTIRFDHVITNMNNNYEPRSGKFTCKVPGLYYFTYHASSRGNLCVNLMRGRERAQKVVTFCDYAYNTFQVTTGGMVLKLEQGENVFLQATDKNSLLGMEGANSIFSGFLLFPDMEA
Sequence of UniProt P02745 (P02747 29-245, chain 3 of 3, further chain): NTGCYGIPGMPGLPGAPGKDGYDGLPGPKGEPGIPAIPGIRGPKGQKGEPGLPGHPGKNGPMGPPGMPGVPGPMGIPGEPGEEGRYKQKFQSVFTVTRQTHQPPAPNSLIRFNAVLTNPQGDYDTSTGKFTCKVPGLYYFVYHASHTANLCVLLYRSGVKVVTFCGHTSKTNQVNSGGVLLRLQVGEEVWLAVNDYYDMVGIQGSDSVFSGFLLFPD

caspase-1 activity of HMDMs after 18 h with CC-C1q-vWF complexes, percent of CD11c+ cells in the FLICA+ gate; CC-C1q without vWF: 11.54% (7.29–28.38%) [1]: 9.37%
median gMFI of vWF staining on CC-C1q [2]: 115000 gMFI
early phagocytosis (30 min) of pHrodo-dyed CC-C1q-vWF complexes by HMDMs, percent of CD11c+ cells in the pHrodo Red Ester+ gate; CC-C1q without vWF: 62, 40% (49.05–68.78%) [3]: 54.5%
late phagocytosis (18 h) of CC-C1q-vWF complexes by HMDMs, percent of CD11c+ cells in the SSC^high gate; CC-C1q without vWF: 24.05% (22.55–34.60%) [3]: 13.7%
Substance: von Willebrand factor (from UniProt P04275 764-2813) (natural protein)
